The results in this text go back to US12258605B2, “Alkane oxidation by modified hydroxylases” (The California Institute of Technology, priority 2005, dated 2025).

Series [1] in a line: Kinetic measurements (Michaelis-Menten): propane. The class given is biochemical. The settings on record: N.a. = not active. The procedure: Rate measurements. Initial rates of product formation were determined at 25° C. in 100 mM KPi pH 8.0 buffer using purified protein (100 nM) and a substrate concentration of 1.6 mM. In a 5 mL-vial, 20 μL of alkane solution (in ethanol) were dissolved in 400 μL KPi buffer, to which 500 μL enzyme solution at 100-200 nM was added. Reaction was initiated by adding 100 μL of 5 mM NADPH solution, followed by stirring at 300 rpm for 1 minute, and quenched by adding 200 μL chloroform and stirring at 800 rpm for 10 sec. Solutions were transferred to an Eppendorf tube, to which internal standard (10 μL 25 mM 1-bromohexane in ethanol) was added. Tubes were vortexed for 10 sec and centrifuged for 30 sec at 10,000 g. Organic phase was removed and analyzed by GC. For propane, reactions were carried out in a 5 mL-scale using 100-400 nM purified enzyme, propane-saturated buffer (propane concentration≈1.6 mM) and a final NADPH concentration of 500 μM. Reactions were stopped by addition of 200 μL H2SO4 conc. and analyzed by derivatization to alkyl nitrites followed by GC-ECD analysis as described below.
Kinetic measurements. […] Reactions were carried out in a 5 mL-scale using 100-400 nM purified enzyme and a final NADPH concentration of 1 mM. After 30 seconds, reactions were stopped by addition of 200 μL H2SO4 conc. and analyzed by GC as described below. Propane leakage during the experiment was neglected in reason of short measuring time. All measurements were performed in triplicate. Kinetic parameters were estimated from least-squares nonlinear regression to the Michaelis-Menten equation,
[formula] where v is the initial velocity, S is the substrate concentration, Vmax is the maximum velocity, and Km is the apparent Michaelis constant for the substrate.
Products from alkane reactions were identified and quantified by gas chromatography using authentic standards and calibration curves with internal standards. For the reactions with alkanes from pentane to decane, GC analyses were carried out using a Shimadzu GC-17A gas chromatograph, Agilent HP5 column (30 m×0.32 mm×0.1 μm film), 1 μL injection, FID detector, and the following separation program: 250° C. inlet, 250° C. detector, 50° C. oven for 3 min, 5° C./min gradient to 100° C., 25° C./min gradient to 230° C., and 230° C. for 3 min. For butane and propane (TTN) reactions, GC analyses were carried out using a Hewlett-Packard 5890 Series II Plus gas chromatograph, Supelco SPB-1 column (60 m×0.52 mm×0.5 μm film), 0.5 μL injection, FID detector, and the following separation program: 250° C. inlet, 275° C. detector, 80° C. oven for 2 min, 10° C./min gradient to 110° C., 25° C./min gradient to 275° C., and 275° C. for 2.5 min. […] Organic solutions were analyzed by FID-GC.

The nature of series [2]: Ethane hydroxylation to ethanol (rate, total turnover). The class given is biochemical. How it is done:
Ethane hydroxylation by 53-5H was measured after 12-hour incubations of the enzyme in ethane-saturated buffer containing an ethanol-free NADPH regeneration system (commercial NADPH contains 2-3% ethanol). While the reaction is uncoupled to NADPH oxidation in the presence of ethane (660 min-1, see Table 2), 53-5H nevertheless consistently produces at least 50 equivalents of ethanol independent of the starting concentration of enzyme (see FIGS. 2 and 3). Over oxidation was tested by supplying ethanol as a substrate and monitoring ethanol depletion by gas chromatography and the production of acetaldehyde and acetic acid by ^13C NMR using ^13C-labeled ethanol. No (i.e. less than 10%, the detection limit of these experiments) over oxidation products were detected in these experiments (see FIG. 4). In general, the hydrophobic active sites in P450s assist in the release of singly-hydroxylated products.
Reactions on ethane were carried out similarly to those described for propane (Peters et al., J. Am. Chem. Soc. 125:13442 (2003); incorporated by reference herein). Because commercially-available NADPH contains 2-3% ethanol, an NADPH regeneration system was used. Thereby, the background ethanol concentration was reduced to approximately 1 μM. Ethane hydroxylation reactions were performed in 20 mL glass vials. A 5.0 mL reaction mixture contained 100, 200 or 500 nM purified protein in 0.1 M potassium phosphate buffer (pH 8.0) saturated with ethane and dioxygen. […] The vial was immediately topped with a septum, pressurized with 20 psi of ethane and stirred at 25° C. For determination of total turnover, the reaction was allowed to proceed for four hours. For rate determination the reaction was stopped at 0, 15 and 30 min. 50 μL of 5 mM 1-butanol was added to the reaction mixture as an internal standard. Ethanol and 1-butanol were subsequently derivatized to their corresponding alkyl nitrites. Control reactions were performed by repeating these steps without substrate and with inactivated protein, to correct for background levels of ethanol. […] Reactions with ethane and corresponding control reactions without ethane or with inactivated protein were carried out in triplicate. […]
Rates of ethanol formation were measured over 30 min using gas chromatography (GC) coupled to an electron capture detector (ECD) and are reported as nmol ethanol/min/nmol enzyme. […] Total turnover number (ttn) was measured using GC after completion of the reaction and is reported as nmol product/nmol protein. […] Initial rates of propanol and octanol formation were measured over 1 min by GC and are reported as nmol product/min/nmol protein. […] The “ee” of 2-octanol (main product) was measured by GC; the favored enantiomer is listed in parenthesis. […]

For orientation: Km means the concentration of substrate that gives half-maximal velocity. The kcat is the maximal rate divided by the concentration of active sites.

B1: 35-E11: P450 BM-3 variant, SEQ ID NO:7: 53-5H substitutions plus E464G and I710T (protein)
chain: TIKEMPQPKTFGELKNLPLLNTDKPVQALMKIADELGEIFKFEAPGCVTRYLSSQRLIKEACDESRFDKNLSQALKFFRDFSGDGLFTSWTHEINWKKAHNILLPSFSQQAMKGYHAMMVDIAVQLVQKWERLNADEHIEVSEDMTRLTLDTIGLCGFNYRFNSFYRDQPHPFIISMVRALDEVMNKLQRANPDDPAYDENKRQCQEDIKVMNDLVDKIIADRKARGEQSDDLLTQMLNGKDPETGEPLDDGNISYQIITFLIAGHETTSGLLSFALYFLVKNPHVLQKVVEEAARVLVDPVPSYKQVKQLKYVGMVLNEALRLWPTFPAFSLYAKEDTVLGGEYPLEKGDEVMVLIPQLHRDKTIWGDDVEEFRPERFENPSAIPQHAFKPFGNGQRACIGQQFALHEATLVLGMMLKHFDFEDHTNYELDIKETLTLKPEGFVVKAKSKKIPLGGIPSPSTGQSAKKVRKKAENAHNTPLLVLYGSNMGTAEGTARDLADIAMSKGFAPQVATLDSHAGNLPREGAVLIVTASYNGHPPDNAKQFVDWLDQASADEVKGVRYSVFGCGDKNWATTYQKVPAFIDETLAAKGAENIADRGEADASDDFEGTYEEWREHMWSDVAAYFNLDIENSEDNKSTLSLQFVDSAADMPLAKMHGAFSTNVVASKELQQPGSARSTRHLEIELPKEASYQEGDHLGVIPRNYEGTVNRVTARFGLDASQQIRLEAEEEKLAHLPLAKTVSVEELLQYVELQDPVTRTQLRAMAAKTVCPPHKVELEALLEKQAYKEQVLAKRLTMLELLEKYPACEMKFSEFIALLPSIRPRYYSISSSPRVDEKQASITVSVVSGEAWSGYGEYKGIASNYLAELQEGDTITCFISTPQSEFTLPKDPETPLIMVGPGTGVAPFRGFVQARKQLKEQGQSLGEAHLYFGCRSPHEDYLYQEELENAQSEGIITLHTAFSRMPNQPKTYVQHVMEQDGKKLIELLDQGAHFYICGDGSQMAPAVEATLMKSYADVHQVSEADARLWLQQLEEKGRYAKDVWAG
modifications: mutant P450 35-E11 protein sequence
In the case of B1, in series [1], the Km came to 820 ± 95 µM and the kcat was 4.08 ± 0.417 s⁻¹. Moreover, the ethanol produced result in series [2] (200 nM of mutant, typical reaction with ethane) is listed as “over 50 μM”. The molecule further showed an Ethane ttn in series [2] (after completion of the reaction) of 250 nmol product/nmol protein. Besides, the “increase in total turnover of ethane to ethanol” value in series [2] (compared to 53-5H) is listed as “five-fold”. The “Ethane Rate” value in series [2] (ethanol formation over 30 min, GC-ECD, dash = no activity) is 0.4 nmol ethanol/min/nmol enzyme.

B2: P450PMO: P450 BM-3 variant, SEQ ID NO:125; 7-7 plus G443A and D698G; propane monooxygenase (protein)
chain: TIKEMPQPKTFGELKNLPLLNTDKPVQALMKIADELGEIFKFEAPGCVTRYISSQRLIKEACDESRFDKNLSQELKFFRDFGGDGLFTSWTHEINWKKAHNILLPSFSQQAMKGYHAMMVDIAVQLVQKWERLNADEHIEVSEDMTRLTLDTIGLCGFNYRFNSFYRDQPHPFIISMVRALDEVMNKPQRANPDDPAYDENKRQCQEDIKVMNDLVDKIIADRKARGEQSDDLLTQMLNGKDPETGEPLDDGNISYQIITFLIAGHETTSGLLSFALYFLVKNPHVLQKVVEEAARVLVDPVPSYKQVKQLKYVGMVLNEALRLWPTFPAFSLYAKEDTVLGGEYPLEKGDEVMVLIPQLHRDKTVWGDDVEEFRPERFENPSAIPQHAFKPFGNGQRACIGQQFALHEATLVLGMMLKHFDFEDHTNYELDIKETLTLKPEAFVVKAKSKKIPLGGIPSPSTGQSAKKVRKKAENAHNTPLLVLYGSNMGTAEGTARDLADIAMSKGFAPQVATLDSHAGNLPREGAVLIVTASYNGHPPDNAKQFVDWLDQASADEVKGVRYSVFGCGDKNWATTYQKVPAFIDETLAAKGAENIADRGEADASDDFEGTYEEWREHMWSDVAAYFNLDIENSEDNKSTLSLQFVDSAADMPLAKMHGAFSTNVVASKELQQPGSARSTRHLEIELPKEASYQEGGHLGVIPRNYEGTVNRVTARFGLDASQQIRLEAEEEKLAHLPLAKTVSVEELLQYVELQDPVTRTQLRAMAAKTVCPPHKVELEALLEKQAYKEQVLAKRLTMLELLEKYPACEMKFSEFIALLPSIRPRYYSISSSPRVDEKQASITVSVVSGEAWSGYGEYKGIASNYLAELQEGDTITCFISTPQSEFTLPKDPETPLIMVGPGTGVAPFRGFVQARKQLKEQGQSLGEAHLYFGCRSPHEDYLYQEELENAQSEGIITLHTAFSRMPNQPKTYVQHVMEQDGKKLIELLDQGAHFYICGDGSQMAPAVEATLMKSYADVHQVSEADARLWLQQLEEKGRYAKDVWAG
modifications: Mutant P450PMO protein sequence
notes: 7-7 plus G443A and D698G; propane monooxygenase
Take B2: in series [1], the Km is 170 µM and the kcat was 3.08 ± 0.583 s⁻¹.
